B1: Serine/threonine-protein kinase PBS1 (Arabidopsis thaliana (Mouse-ear cress)), Q9FE20 (parent)
chain: MGCFSCFDSSDDEKLNPVDESNHGQKKQSQPTVSNNISGLPSGGEKLSSKTNGGSKRELLLPRDGLGQIAAHTFAFRELAAATMNFHPDTFLGEGGFGRVYKGRLDSTGQVVAVKQLDRNGLQGNREFLVEVLMLSLLHHPNLVNLIGYCADGDQRLLVYEFMPLGSLEDHLHDLPPDKEALDWNMRMKIAAGAAKGLEFLHDKANPPVIYRDFKSSNILLDEGFHPKLSDFGLAKLGPTGDKSHVSTRVMGTYGYCAPEYAMTGQLTVKSDVYSFGVVFLELITGRKAIDSEMPHGEQNLVAWARPLFNDRRKFIKLADPRLKGRFPTRALYQALAVASMCIQEQAATRPLIADVVTALSYLANQAYDPSKDDSRRNRDERGARLITRNDDGGGSGSKFDLEGSEKEDSPRETARILNRDINRERAVAEAKMWGESLREKRRQSEQGTSESNSTG
partner: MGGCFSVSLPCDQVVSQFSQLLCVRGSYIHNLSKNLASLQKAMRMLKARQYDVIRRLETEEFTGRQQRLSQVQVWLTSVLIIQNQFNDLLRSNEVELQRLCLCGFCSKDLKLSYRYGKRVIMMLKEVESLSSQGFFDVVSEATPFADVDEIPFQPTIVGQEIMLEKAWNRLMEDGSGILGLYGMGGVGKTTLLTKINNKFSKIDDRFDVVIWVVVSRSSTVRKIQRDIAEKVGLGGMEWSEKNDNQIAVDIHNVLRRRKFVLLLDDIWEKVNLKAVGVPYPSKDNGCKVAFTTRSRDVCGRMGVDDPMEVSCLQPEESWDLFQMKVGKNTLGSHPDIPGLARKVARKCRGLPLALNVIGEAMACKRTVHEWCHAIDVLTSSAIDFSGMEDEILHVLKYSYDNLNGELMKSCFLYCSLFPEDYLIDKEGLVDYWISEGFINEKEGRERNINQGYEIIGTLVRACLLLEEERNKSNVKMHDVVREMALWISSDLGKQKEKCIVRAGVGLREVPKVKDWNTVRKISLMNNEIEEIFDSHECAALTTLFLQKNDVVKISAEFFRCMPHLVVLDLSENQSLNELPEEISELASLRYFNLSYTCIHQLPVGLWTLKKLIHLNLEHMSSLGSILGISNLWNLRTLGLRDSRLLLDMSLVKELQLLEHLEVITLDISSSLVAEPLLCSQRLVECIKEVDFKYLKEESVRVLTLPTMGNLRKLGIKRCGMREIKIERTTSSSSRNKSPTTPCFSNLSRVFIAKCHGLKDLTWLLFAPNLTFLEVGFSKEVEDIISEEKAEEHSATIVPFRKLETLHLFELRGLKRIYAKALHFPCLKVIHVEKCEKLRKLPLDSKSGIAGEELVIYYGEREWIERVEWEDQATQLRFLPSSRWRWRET

Variants of: B1
Conditions: with rps5_arath RPS5, O64973

Variant	effect of a mutation on the interaction
K115N	disrupting interaction strength
G252R	disrupting interaction strength

Source: IntAct's records for PubMed 17277084
